assay: yeast display, Sf9 membrane polyspecificity reagent, FACS + sequencing; frameworks hold sequencing errors
How it was run: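 Galactose-induced (36–48 hours) yeast carrying a synthetic nanobody display library were exposed to 10% biotinylated, detergent-solubilized Sf9 membrane reagent at 4 °C for 1 hour. FACS followed streptavidin microbead enrichment, using low and high (top ~1%) gates for expression (anti-HA) and reagent binding (streptavidin). Colony PCR, MiSeq 2 × 250 sequencing and CDR-length filtering followed. Labels for polyreactivity reflect the gate of origin.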

| Sequence | polyreactivity (PSR sort gate) |
| --- | --- |
| QVQLVESGGGLVQAGGSLRLSSAASGRIFTYYAMGWYRQAPGKVREVVAAISFRGASTYYADSVKGRVTISRDYAQNTVYLQMHSLKPEDTAVYYGAAERIARPTIDYWGQGTQVTVSS | low polyreactivity |
| QVQLVESGGGLVQAGGSLRLSSAASGRIFVVNAMGWYRQAPGKERELVAAISKSGARTYYADSVKGRFTISRDNAKNTVYLQMNSLKPEDTAVYYCAAESKGYSQSVFPYDYWGQGTQVTVSS | high polyreactivity |
| QVQLVESGGGLVQAGGSLRLSSAASGRIFYGYAMGWYRQAPGKERELVAAITNTGVDTYYADSVKGRFTISRDNEKNTVYLQMNSLKPEDTAVYYCAADGRRPKSGYWGQGTQVTVSS | low polyreactivity |
| QVQLVESGGGLVQAGGSLRLSSAASGRTFAGYTMGWYRQAPGKERELVAAITKSGGSTYYADSVKGRFTISRDNAKNTVYLQMNSLKPEDTAFYYCAARYIPSRYGTGGGYYSWGQGTQVTVSS | high polyreactivity |
| QVQLVESGGGLVQAGGSLRLSSAASGRTFNYYPMGWYRQAPGKQWELVAAISDSAGDTYYADSVKGRFTISRDNAKNTVDLQKNSQKPEDPAVYYCAVVRGGRGYPGYDYWGQGTQVTVSS | low polyreactivity |
| QVQLVESGGGLVQAGGSLRLSSAASGRTFQYYAMGWYRQAPGKERELVAAITSGGSTYYADSVKGRFTISRDNAKNTVSLQMNSLKPEDTAVYYCAATFYYSGHDDYWGQGTQVTVSS | low polyreactivity |
| QVQLVESGGGLVQAGGSLRLSSAASGRTFRRYAMGWYRQAPGKERELVATITNAGSTYYADSVKGRFTISRDNAKNTVYLPMNSLKPEDTAVYYCAARVPYKSDYWGQGTQVTVSS | low polyreactivity |
| QVQLVESGGGLVQAGGSLRLSSAASGRTFRYNAMGWYRQAPGKERELVAAISWSGTSTYYADSVKGRFTISRDNAKNTVYLQMNSLKPEDTAVYYCAARGLYDYGYWGQGTQVTVSS | high polyreactivity |
| QVQLVESGGGLVQAGGSLRLSSAASGRTFTTYAMGWYRQAHGKERELVAAISGSGGSTYYADSVKGRFTISRDNAKNTVYLQMNSLKPEDTAVYYCATAYYYHGGYYYPYDDYWGQGTQVTVSS | low polyreactivity |
| QVQLVESGGGLVQAGGSLRLSSAASGRTFVHYAMGWYRQAPGKERELVAAISWSGGSTYYADSVKGRFTISRDNAKNTVYLQMNSLKPEDTAVYYCNAGGFAPGRYGEFDYWGQGTQVTVSS | low polyreactivity |
| QVQLVESGGGLVQAGGSLRLSSAASGRTFVSYAMGWYRQAPGKERELVAVITYSGGSTNYADSVKGRFTISRDNAKNTVYLQMNSLKPEDTAVYYCAATQSIPYSTLYSYDYWGQGTQVTVSS | low polyreactivity |
| QVQLVESGGGLVQAGGSLRLSSAASGRTFYGNAMGWYRQAPGKERELVATINYSGGSTYYADSVKGRFTISRDNAKNTVYLQMNSLKPEDTAVYYCAAVDPEEFDYWGQGTQVTVSS | low polyreactivity |
| QVQLVESGGGLVQAGGSLRLSSAASGSIFETYAMGWSRQAPGKERELVAAITQSGGSTYYADSVKGRFTISRDNAKNTVYLQMNSLKPEDTAVYYCAADLVVWWKWGYEYWGQGTQVTVSS | low polyreactivity |
| QVQLVESGGGLVQAGGSLRLSSAASGSIFGSNAMGWYRPAPVKERELVAAISSGSTYYADSVKGRFTISRDNAKNTVYLQMNSLKPEDTAVYYCYARSLLYEFDYWGQGTQVTVSS | low polyreactivity |
| QVQLVESGGGLVQAGGSLRLSSAASGSIFGYAMGWYRQAPGKERELVARIDWSGGRTYYADSVKGRFTISRDNAKNTVYLQMYSLKPDDTAVYYCYARRYLYRGNIVDYWGQGTQVTVSS | high polyreactivity |
| QVQLVESGGGLVQAGGSLRLSSAASGSIFPANALGWYRQAPGKERELVAASTANGGSTYYADSVKGRFTISRDNAKNTVYLQMNSLKPEDTAVYYCNAYFVSGHAGGYDYWGQGTQETVSS | high polyreactivity |
| QVQLVESGGGLVQAGGSLRLSSAASGSIFPYYAMGWYRQAPGKERELVAAISWSGTSTYYADSVKGRFTISRDNAKNTVYLQMNSLKPEDTAVYYCNAGYYHFYASGYDYWGQGTQVTVSS | low polyreactivity |
| QVQLVESGGGLVQAGGSLRLSSAASGSIFRFYTMGWYRQAPGKERELVAAISASGGNTYYADSVKGRFTISRDNAKNTVYLQMNSLKPEDTAVYYCARVKFTKYDYWGQGTQVTVSS | high polyreactivity |
| QVQLVESGGGLVQAGGSLRLSSAASGSIFSDYAMGWYRQAPGKERELVAAISGTGGGTYYADSVKGRFTISRDNAKNTVYLQMNSLKPEDTAVYYCAADYVFAWWGDYYWGQGTQVTVSS | high polyreactivity |
| QVQLVESGGGLVQAGGSLRLSSAASGSIFVLNAMGWYRQAPGKERELVAAITNVGSTYYADSVKGRFTISRDNAKNTVYLQMNSLKPEDTAVYYCNADPGEVLVGYDYWGQGTQVTVSS | low polyreactivity |
| QVQLVESGGGLVQAGGSLRLSSAASGSIFWVYAMGWYRQAPGKERELVAAISNRGGSTYYADSVKGRFTISRDNAKNTVYLQMNSLKPEDTAVYYCAAVVAHHYYWGQGTQVTVSS | high polyreactivity |
| QVQLVESGGGLVQAGGSLRLSSAASGSIFYKNAKGWYRQAPGKEREFVAGISRRGGSTYYADSVKGRFTISLDNAKNTVYLQMNSLKPEDTAVYYCASSQSGGYDYWGQGTQVTVSS | high polyreactivity |
| QVQLVESGGGLVQAGGSLRLSSAASGSIFYSYAMGWYRQAPGKERELVARMSSGGSTYYADSVKGRFTISRDNAKNSVYLQMNSLKPEDTAVYYCAAEALYYPYETYDYWGQGTQETVSS | high polyreactivity |
| QVQLVESGGGLVQAGGSLRLSSAASGSTFDHYAMGWYRQAPGKERELVAAITWSGGRTYYADSVKGRFTISRDNAKNTVYFQMNSLKPEDTAVYYCAARGYQIRVANYKYDSWGQGTQVTVSS | low polyreactivity |
| QVQLVESGGGLVQAGGSLRLSSAASGSTFIRYAMGWYRQAPGKERELVAAISTSGGSTYYADSVKGRFTISRDNAKNTVYLQMNSLKPEDTAVYYCNAVSRSYRYAGVPGFHYDYWGQGTQVTVSS | high polyreactivity |
| QVQLVESGGGLVQAGGSLRLSSAASGSTFKFYAMGWYRQAPGKERELVAAIRYSGGSTYYADSVKGRFTISRDNAKNTVYLQMNSLKPEDTAVYFCATEAQCVTYWFGYWGQGTQVTVSS | low polyreactivity |
| QVQLVESGGGLVQAGGSLRLSSAASGSTFKYYAMGCYRQAPGKERELVAAITNDGSTSYADSVKGRFTISRDNAKNTVYLQMNSLTPEDTAVYYCNARSKYPSYFSSMGYWGQGTQVTVSS | high polyreactivity |
| QVQLVESGGGLVQAGGSLRLSSAASGSTFKYYAMGWYRPDPGKERELVAAIRTSGGRTYYADSVKGRFTISRDNAKNTVDLQMNSLKPEDSAVYFCNARYNQFGQRFDYWGQGSQVTVSS | high polyreactivity |
| QVQLVESGGGLVQAGGSLRLSSAASGSTFPDYDMGWYRQAPGKERELVAAITSSGGITYYADSVKGRFTISRDNAKNTVYLQMNSLKPEDTSVSYCAAYGYGSNYRYTGYYYWGQGTEVTVSS | low polyreactivity |
| QVQLVESGGGLVQAGGSLRLSSAASGSTFPSYAMGWYRQAPGKERELVAAINSGGGTNYADSVKGRFTISRDNAKNTVYLQMNSLKPEDTAVYYCAKSRYDYTKTEGGYWGLGTQVTVSS | low polyreactivity |

Source: the nanobody polyreactivity screen of Harvey et al. (2022)
